Patent US20150344540A1, “NOVEL GLP-1 RECEPTOR AGONISTS WITH CHOLESTEROL EFFLUX ACTIVITY” (NOVO NORDISK A/S, priority 2012, published 2015)
Where no end group is shown, it is not given here. [ ]: non-standard residue; d: D form. Aib = CC(C)(N)C(=O)O

Molecular target: human GLP-1 receptor (human, UniProt P43220)
Assay: cell-based or functional assay

Row | Binder | CRE luciferase EC50, 0% HSA [nM] | CRE luciferase EC50, 1% HSA [nM]
1 | H[Aib]EGTFTSDVSSYLEGQAVKQFIAWLVEK[Aib]AEFL-NH2 (N-terminus assumed; SMILES CC[C@H](C)[C@H](NC(=O)[C@H](Cc1ccccc1)NC(=O)[C@H](CCC(N)=O)NC(=O)[C@H](CCCCN)NC(=O)[C@@H](NC(=O)[C@H](C)NC(=O)[C@H](CCC(N)=O)NC(=O)CNC(=O)[C@H](CCC(=O)O)NC(=O)[C@H](CC(C)C)NC(=O)[C@H](Cc1ccc(O)cc1)NC(=O)[C@H](CO)NC(=O)[C@H](CO)NC(=O)[C@@H](NC(=O)[C@H](CC(=O)O)NC(=O)[C@H](CO)NC(=O)[C@@H](NC(=O)[C@H](Cc1ccccc1)NC(=O)[C@@H](NC(=O)CNC(=O)[C@H](CCC(=O)O)NC(=O)C(C)(C)NC(=O)[C@@H](N)Cc1c[nH]cn1)[C@@H](C)O)[C@@H](C)O)C(C)C)C(C)C)C(=O)N[C@@H](C)C(=O)N[C@@H](Cc1c[nH]c2ccccc12)C(=O)N[C@@H](CC(C)C)C(=O)N[C@H](C(=O)N[C@@H](CCC(=O)O)C(=O)N[C@@H](CCCCN)C(=O)NC(C)(C)C(=O)N[C@@H](C)C(=O)N[C@@H](CCC(=O)O)C(=O)N[C@@H](Cc1ccccc1)C(=O)N[C@@H](CC(C)C)C(N)=O)C(C)C) [[Aib8,Val25,Gln27,Glu34,Lys35,Aib36,Ala37]-GLP-1-(7-37)-peptidyl-Glu-Phe-Leu amide] | 0.191 | 0.069
2 | H[Aib]EGTFTSDVSSYLEGQAVKEFIAWLVNK[Aib]AEFL-NH2 (N-terminus assumed; SMILES CC[C@H](C)[C@H](NC(=O)[C@H](Cc1ccccc1)NC(=O)[C@H](CCC(=O)O)NC(=O)[C@H](CCCCN)NC(=O)[C@@H](NC(=O)[C@H](C)NC(=O)[C@H](CCC(N)=O)NC(=O)CNC(=O)[C@H](CCC(=O)O)NC(=O)[C@H](CC(C)C)NC(=O)[C@H](Cc1ccc(O)cc1)NC(=O)[C@H](CO)NC(=O)[C@H](CO)NC(=O)[C@@H](NC(=O)[C@H](CC(=O)O)NC(=O)[C@H](CO)NC(=O)[C@@H](NC(=O)[C@H](Cc1ccccc1)NC(=O)[C@@H](NC(=O)CNC(=O)[C@H](CCC(=O)O)NC(=O)C(C)(C)NC(=O)[C@@H](N)Cc1c[nH]cn1)[C@@H](C)O)[C@@H](C)O)C(C)C)C(C)C)C(=O)N[C@@H](C)C(=O)N[C@@H](Cc1c[nH]c2ccccc12)C(=O)N[C@@H](CC(C)C)C(=O)N[C@H](C(=O)N[C@@H](CC(N)=O)C(=O)N[C@@H](CCCCN)C(=O)NC(C)(C)C(=O)N[C@@H](C)C(=O)N[C@@H](CCC(=O)O)C(=O)N[C@@H](Cc1ccccc1)C(=O)N[C@@H](CC(C)C)C(N)=O)C(C)C) [[Aib8,Val25,Asn34,Lys35,Aib36,Ala37]-GLP-1-(7-37)-peptidyl-Glu-Phe-Leu amide] | 0.108 | 0.062
3 | H[Aib]EGTFTSDVSSYLEGEKVKEFIEHLVEK[Aib]KEFL-NH2 (N-terminus assumed; SMILES CC[C@H](C)[C@H](NC(=O)[C@H](Cc1ccccc1)NC(=O)[C@H](CCC(=O)O)NC(=O)[C@H](CCCCN)NC(=O)[C@@H](NC(=O)[C@H](CCCCN)NC(=O)[C@H](CCC(=O)O)NC(=O)CNC(=O)[C@H](CCC(=O)O)NC(=O)[C@H](CC(C)C)NC(=O)[C@H](Cc1ccc(O)cc1)NC(=O)[C@H](CO)NC(=O)[C@H](CO)NC(=O)[C@@H](NC(=O)[C@H](CC(=O)O)NC(=O)[C@H](CO)NC(=O)[C@@H](NC(=O)[C@H](Cc1ccccc1)NC(=O)[C@@H](NC(=O)CNC(=O)[C@H](CCC(=O)O)NC(=O)C(C)(C)NC(=O)[C@@H](N)Cc1c[nH]cn1)[C@@H](C)O)[C@@H](C)O)C(C)C)C(C)C)C(=O)N[C@@H](CCC(=O)O)C(=O)N[C@@H](Cc1c[nH]cn1)C(=O)N[C@@H](CC(C)C)C(=O)N[C@H](C(=O)N[C@@H](CCC(=O)O)C(=O)N[C@@H](CCCCN)C(=O)NC(C)(C)C(=O)N[C@@H](CCCCN)C(=O)N[C@@H](CCC(=O)O)C(=O)N[C@@H](Cc1ccccc1)C(=O)N[C@@H](CC(C)C)C(N)=O)C(C)C) [[Aib8,Glu23,Lys24,Val25,Glu30,His31,Glu34,Lys35,Aib36,Lys37]-GLP-1-(7-37)-peptidyl-Glu-Phe-Leu amide] | 1.84 | 0.593
